Measurements published in the Human Domainome abundance scans (Beltran et al. 2025).
± gives the uncertainty stated by the source.

B1: Tyrosine-protein kinase BTK, residues 215 to 273; numbered along this chain, Q06187 (parent)
chain: ELKKVVALYDYMPMNANDLQLRKGDEYFILEESNLPWWRARDKNGQEGYIPSNYVTEAE

Variants of: B1
Assay: abundance fitness (aPCA) (normalised: wild type 0, dead -1); higher = more abundant; growth selection in yeast, the domain comes from the species named
Details: Homo sapiens

Variant	abundance fitness
Y54P	-0.93 ± 0.099
Y54A	0.02 ± 0.05
Y54R	-0.078 ± 0.033
Y54I	-0.228 ± 0.075
Y54S	0.022 ± 0.037
Y54N	-0.266 ± 0.065
Y54C	-0.037 ± 0.05
Y54L	-0.109 ± 0.034
Y54G	0.037 ± 0.042
Y54Q	-0.153 ± 0.066
Y54K	-0.159 ± 0.07
Y54W	-0.074 ± 0.06
Y54F	0.101 ± 0.066
Y54M	0.035 ± 0.066
Y54T	-0.235 ± 0.059
Y54D	-0.562 ± 0.094
Y54V	-0.203 ± 0.048
Q46T	-0.048 ± 0.052
Q46A	0.014 ± 0.051
Q46W	-0.161 ± 0.045
Q46N	0.007 ± 0.075
Q46E	-0.005 ± 0.073
Q46L	-0.014 ± 0.031
Q46C	0.029 ± 0.055

Variant	abundance fitness
Q46R	-0.016 ± 0.035
Q46D	-0.077 ± 0.079
Q46Y	-0.127 ± 0.087
Q46I	0.047 ± 0.061
Q46S	-0.065 ± 0.043
Q46F	-0.028 ± 0.06
Q46V	0.044 ± 0.037
Q46M	-0.053 ± 0.044
Q46G	-0.036 ± 0.045
Q46P	-0.616 ± 0.073
Q46H	0.04 ± 0.069
K43I	0.049 ± 0.066
K43Q	0.009 ± 0.057
K43A	0.031 ± 0.038
K43H	-0.026 ± 0.086
K43S	-0.016 ± 0.043
K43M	0.021 ± 0.056
K43V	-0.001 ± 0.037
K43N	-0.018 ± 0.085
K43E	-0.005 ± 0.047
K43D	-0.094 ± 0.057
K43F	-0.11 ± 0.072
K43L	-0.029 ± 0.045
K43G	0.004 ± 0.029

Variant	abundance fitness
K43T	-0.016 ± 0.049
K43C	-0.033 ± 0.056
K43P	-0.098 ± 0.061
K43R	-0.033 ± 0.033
N53Q	-0.041 ± 0.067
N53R	-0.03 ± 0.04
N53S	-0.006 ± 0.04
N53V	-0.004 ± 0.038
N53C	-0.164 ± 0.077
N53D	-0.043 ± 0.065
N53E	-0.016 ± 0.041
N53L	-0.099 ± 0.037
N53K	-0.025 ± 0.052
N53T	-0.054 ± 0.052
N53W	-0.137 ± 0.054
N53I	-0.238 ± 0.091
N53M	-0.079 ± 0.048
N53Y	-0.202 ± 0.071
N53A	-0.005 ± 0.044
N53F	-0.137 ± 0.066
N53H	-0.123 ± 0.11
V55W	-0.784 ± 0.069
V55N	-0.808 ± 0.21
V55E	-0.617 ± 0.07

Variant	abundance fitness
V55D	-0.891 ± 0.11
V55M	-0.284 ± 0.079
V55K	-0.833 ± 0.12
V55G	-0.827 ± 0.056
V55T	-0.12 ± 0.06
V55Y	-0.836 ± 0.15
V55S	-0.695 ± 0.05
V55L	-0.292 ± 0.042
V55F	-0.318 ± 0.061
V55Q	-0.945 ± 0.16
V55A	-0.32 ± 0.05
V55H	-0.852 ± 0.11
V55R	-0.905 ± 0.063
V55C	-0.083 ± 0.048
I50K	-1.02 ± 0.15
I50F	-0.121 ± 0.082
I50M	-0.291 ± 0.054
I50R	-1.01 ± 0.091
I50Y	-0.757 ± 0.1
I50E	-0.95 ± 0.08
I50N	-0.92 ± 0.17
I50G	-0.876 ± 0.07
I50S	-1.05 ± 0.12
I50L	-0.043 ± 0.035

Variant	abundance fitness
I50H	-0.592 ± 0.17
I50Q	-1.2 ± 0.18
I50V	-0.014 ± 0.038
N44H	-0.063 ± 0.072
N44M	-0.061 ± 0.095
N44E	-0.009 ± 0.061
N44R	-0.067 ± 0.043
N44G	0.017 ± 0.046
N44V	-0.054 ± 0.049
N44Q	-0.016 ± 0.051
N44K	0.07 ± 0.082
N44D	-0.01 ± 0.066
N44F	-0.026 ± 0.051
N44T	0.029 ± 0.051
N44A	-0.041 ± 0.055
N44W	-0.056 ± 0.065
N44I	0.036 ± 0.099
N44L	-0.023 ± 0.042
N44C	-0.019 ± 0.076
N44S	-0.05 ± 0.049
W37H	0.014 ± 0.062
W37G	-0.134 ± 0.036
W37Q	0.021 ± 0.058
W37D	-0.129 ± 0.056

Variant	abundance fitness
W37I	-0.097 ± 0.071
W37F	-0.011 ± 0.051
W37K	0.027 ± 0.056
W37C	0.029 ± 0.05
W37L	-0.014 ± 0.032
W37V	0.013 ± 0.037
W37E	0.011 ± 0.054
W37P	-0.227 ± 0.052
W37Y	-0.018 ± 0.054
W37A	-0.03 ± 0.047
W37S	-0.017 ± 0.036
W37T	0.036 ± 0.045
W37M	0.006 ± 0.044
G45I	-0.809 ± 0.15
G45R	-0.16 ± 0.032
G45C	-0.162 ± 0.064
G45V	-0.641 ± 0.046
G45D	-0.057 ± 0.065
G45S	-0.125 ± 0.04
G45E	-0.156 ± 0.045
G45T	-0.425 ± 0.062
G45Q	-0.144 ± 0.05
G45F	-0.173 ± 0.073
G45Y	-0.062 ± 0.072

Variant	abundance fitness
G45A	-0.073 ± 0.04
G45P	-1.05 ± 0.15
G45H	-0.118 ± 0.12
G45K	-0.125 ± 0.053
G45L	-0.08 ± 0.038
G45N	0.008 ± 0.093
G45W	-0.224 ± 0.036
W38D	-0.157 ± 0.093
W38G	-0.22 ± 0.043
W38P	-0.038 ± 0.043
W38H	-0.029 ± 0.071
W38A	-0.017 ± 0.061
W38Y	0.044 ± 0.063
W38V	0.022 ± 0.035
W38C	-0.027 ± 0.048
W38K	-0.008 ± 0.043
W38F	-0.031 ± 0.043
W38L	-0.005 ± 0.029
W38M	0.017 ± 0.037
W38Q	-0.019 ± 0.05
W38N	-0.098 ± 0.056
W38S	0.042 ± 0.032
W38T	-0.009 ± 0.037
